# Assay results from patent US20130053541A1, “METHODS FOR DISCOVERING MOLECULES THAT BIND TO PROTEINS” (LYNNTECH, INC., priority 2011, published 2013).
# Target: T1, native human ESRRG protein (Homo sapiens, UniProt P62508)
# T1 sequence (P62508 1-458): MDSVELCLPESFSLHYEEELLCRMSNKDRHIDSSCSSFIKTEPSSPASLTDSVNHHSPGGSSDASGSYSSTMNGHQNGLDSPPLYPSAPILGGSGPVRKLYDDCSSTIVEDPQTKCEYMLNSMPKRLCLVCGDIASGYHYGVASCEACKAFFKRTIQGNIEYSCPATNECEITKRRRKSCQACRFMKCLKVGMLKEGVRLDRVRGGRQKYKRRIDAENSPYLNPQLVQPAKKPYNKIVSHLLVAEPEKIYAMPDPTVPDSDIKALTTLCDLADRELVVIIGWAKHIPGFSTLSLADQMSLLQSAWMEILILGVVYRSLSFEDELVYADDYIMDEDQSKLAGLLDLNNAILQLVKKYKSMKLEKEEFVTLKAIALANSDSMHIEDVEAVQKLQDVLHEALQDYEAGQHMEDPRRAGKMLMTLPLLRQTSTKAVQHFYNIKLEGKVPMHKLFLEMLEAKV
# Assay: peptide microarray screening for ESRRG binding (Iteration 1 and 2)
# Conditions: Iteration 1 primary screen
# Description: The BLOSUM62 matrix was divided into Tiers based, with Tier 1 comprising “most conserved” (lowest penalty) and Tier 3 comprising “least conserved” (highest penalty) mutations observed in nature. Sequences for microarray production for the primary stage (Iteration 1) of screening for protein binding were created by permuting AA positions 4 and/or 5 only (i.e., core of sequence) of parent 8-mer peptides using Tier 1 and Tier 3 substitutions. This allows the systematic variation of the sequence in order to identify the most important motif within the larger candidate ligand sequence that is needed for binding the target protein. All peptides on the array were grown from the C→N terminal, with the exposed N-terminal amino acid masked by an acetyl group to prevent folding of the sequence and enable full presentation of the peptide to its target protein.
# Screening was carried out typically by hybridization of the protein (1 μg/mL) against the array for 1 h at 4° C.; detection of bound protein was carried out using a fluorescently labeled anti-ESRRG mAb. (Direct labeling of ESRRG and alternative detection strategies are equally valid).
# Highest binders (based on relative fluorescence signal) were selected and iteratively sequence expanded and arrayed (Iteration 2); and ESRRG binding sequences were selected as above. For iterative arrays, the core positions (AA 4 and 5) were kept unchanged while the outer amino acids (2, 3, 6, and/or 7) were permuted using Tier 3 substitutions.
# Daughter candidate ligands and their new Tier 3 and/or Tier 1 based combinations were synthesized in situ on an addressable peptide microarray and screened against native human ESRRG protein in order to determine sequences that bind to this protein. Bound protein was detected by a fluorescently labeled anti-ESRRG mAb. Results are obtained in fluorescence intensity units which were used to rank the peptide ligands. Excess (100×) competing biological matrices (human serum, HSA/BSA or bacterial protein extract) were used as backgrounds to select for specific ligands to the protein. Other competing proteins can be added to background for specificity selection and directed evolution of ligands.
# Iterative sequence expansion and arraying of 10 highest binding ligands to ESRRG from Iteration 1 was carried out and the new peptide sequences were synthesized on an array and screened against the protein, as described above. In this step, the central 2 amino acids (core) in peptide sequences were maintained unchanged while outlying amino acids (2, 3, 6, and 7) were permuted (using Tier 1 and Tier 3 substitutions) in a ‘cipher’ or ‘combination’ lock approach. Further affinity maturation of sequence was observed, with multifold enhancement in binding signal of Iteration 2 sequences (i.e., Granddaughters) compared to their respective parents from Iteration 1 (i.e., Daughters) on the same array.
row,Substance,log2 (Sample B/Sample A)
1,Ac-AIRLHLMG-NH2 (C-terminus assumed),5.07
2,Ac-NSLKKHLL-NH2 (C-terminus assumed),10.84
3,Ac-ANNSRLLH-NH2 (C-terminus assumed),5.54
4,Ac-LLHKSKSQ-NH2 (C-terminus assumed),4.99
5,Ac-NIKVNANN-NH2 (C-terminus assumed),7.62
6,Ac-LLHSSKSQ-NH2 (C-terminus assumed),5.40
7,Ac-NSLLKHLL-NH2 (C-terminus assumed),7.65

# Same assay, conditions: Iteration 1 primary screen; fluorescence intensity units
Substance,Sample A (Bkgd) Signal,Sample B (Probe) Signal
Ac-AIRLHLMG-NH2 (C-terminus assumed),28.09,942.75
AIRGHLMG,18.88,–
Ac-NSLKKHLL-NH2 (C-terminus assumed),5.04,"9,219.14"
Ac-ANNSRLLH-NH2 (C-terminus assumed),31.74,"1,480.35"
AANMSLLL,16.99,"1,217.01"
LHLRYSQT,33.10,–
AANMYLLL,64.73,"4,011.85"
ANNSLLLH,14.53,"1,321.14"
Ac-LLHKSKSQ-NH2 (C-terminus assumed),30.24,962.22
NSLLQHLL,2.42,"9,739.76"
NNSWSLHL,23.54,–
KSLLQQLL,88.50,"7,385.40"
LLHLQKSQ,14.95,–
ANNSSLLH,7.39,"1,153.13"
ANNSKLLH,23.60,"1,009.30"
ANNVSLLH,62.19,"1,818.72"
Ac-NIKVNANN-NH2 (C-terminus assumed),3.04,598.87
ANNVLLLH,65.96,"1,997.75"
Ac-LLHSSKSQ-NH2 (C-terminus assumed),19.42,819.16
NSLSWHLL,25.76,"1,042.20"
ANNLKLLH,56.94,"1,672.30"
Ac-NSLLKHLL-NH2 (C-terminus assumed),73.81,"14,810.16"

# Same assay, conditions: Iteration 2 iterative screen; fluorescence intensity units
Substance,Sample A (Bkgd) Signal,Sample B (Probe) Signal
WLLLKHGL,222.13,–
RRSYPRGR,445.58,"1,661.87"
NNNFSLHM,199.94,"4,374.19"
LFLLQQDD,219.12,"2,423.10"
ALNFSLNW,152.44,–
PGKGHFPI,260.71,–
WGKLKQGE,209.10,"1,231.15"
YHNYLLHP,240.19,"1,309.00"
WIKLKQND,181.65,"2,343.96"
FFNFSLPA,165.50,"1,043.90"
NLLLKHPD,216.15,"2,297.98"
DRSYPRHT,68.94,–
IFLLQQDN,238.04,"1,007.54"
HNNFSLEP,107.88,–
MYKLKQDN,184.58,–
PWKLKQDP,197.52,"1,339.15"
YFLLQQGP,202.29,–
HYKLKQHE,165.10,"1,296.65"
HNNYLLNN,190.35,–
FWNMYLNP,158.25,–
HFKLKQGG,641.69,"3,108.23"
HLKLKQEN,183.65,"1,745.92"
EESYPRDK,121.27,–
LILLQQLD,177.10,"1,251.12"
HDNMYLNE,81.50,"7,243.75"
